± gives the uncertainty stated by the source.
Assay: protein stability index of a GFP-peptide fusion (yeast GPS) (PSI 1-4); higher = more stable; sorted into four equal gates, so the index is relative within each strain
Method in brief: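 Sequencing reads from sorted gates were used to score each peptide. The library consisted of tiled 17-residue yeast protein peptides fused downstream of GFP on a Cherry-expressing plasmid, pooled and carried in yeast. Mid-log cultures in leucine-free medium were split into four equal gates by GFP/Cherry ratio, and each gate's plasmids were PCR-amplified and Illumina-sequenced. The protein stability index adds up, over all gates, the read frequency multiplied by the gate number.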

EGWPKFQDTLYKKIPLL [QCR10]
protein stability index (doa10∆): 2.8 ± 0.087
protein stability index (pdr5∆): 1.63 ± 0.079
protein stability index (san1∆): 1.85 ± 0.098
protein stability index (ubr1∆): 1.43 ± 0.069

YYVPYSKLMPVLKSSVY [RPC82]
protein stability index (doa10∆): 1.53 ± 0.064
protein stability index (pdr5∆): 1.85 ± 0.079
protein stability index (san1∆): 1.57 ± 0.098
protein stability index (ubr1∆): 1.74 ± 0.079

LQSLTSKGYVKTQFSWQ [RPS10A]
protein stability index (doa10∆): 3.2 ± 0.1
protein stability index (pdr5∆): 2.94 ± 0.096
protein stability index (san1∆): 2.76 ± 0.086
protein stability index (ubr1∆): 3.07 ± 0.065

ITIDSVVDANGCVNSLI [YMR129W/POM152]
protein stability index (doa10∆): 3.01 ± 0.11
protein stability index (pdr5∆): 2.91 ± 0.09
protein stability index (san1∆): 3.05 ± 0.055
protein stability index (ubr1∆): 2.8 ± 0.06

DLVRDIDIDKLIQLGVK [SRP72]
protein stability index (san1∆): 2.71 ± 0.15

VFPSSILDITDEELVSH [RPP0]
protein stability index (doa10∆): 2.89 ± 0.067
protein stability index (pdr5∆): 2.94 ± 0.1
protein stability index (san1∆): 3.26 ± 0.068
protein stability index (ubr1∆): 2.99 ± 0.065

VFYRMQQLRRALPDVVV [RPO31]
protein stability index (doa10∆): 1.83 ± 0.038
protein stability index (pdr5∆): 1.93 ± 0.035
protein stability index (san1∆): 1.82 ± 0.074
protein stability index (ubr1∆): 1.99 ± 0.047

IDYLQRNDKTLELMDSK [POP1]
protein stability index (doa10∆): 3.06 ± 0.096
protein stability index (pdr5∆): 3.19 ± 0.14
protein stability index (san1∆): 2.64 ± 0.25
protein stability index (ubr1∆): 3.24 ± 0.14

PPPYVKFFTQSNLEKLP [MED7]
protein stability index (doa10∆): 2.25 ± 0.036
protein stability index (pdr5∆): 2.29 ± 0.04
protein stability index (san1∆): 2.41 ± 0.049
protein stability index (ubr1∆): 2.49 ± 0.027

NDDSSSMNATMRNFSKQ [YDL088C/ASM4]
protein stability index (doa10∆): 2.76 ± 0.087
protein stability index (pdr5∆): 3.14 ± 0.11
protein stability index (san1∆): 2.71 ± 0.13
protein stability index (ubr1∆): 2.93 ± 0.091

PSTGGVKKPHRYKPGTV [HHT1]
protein stability index (doa10∆): 1.59 ± 0.065
protein stability index (pdr5∆): 1.62 ± 0.057
protein stability index (san1∆): 1.64 ± 0.097
protein stability index (ubr1∆): 1.81 ± 0.072

LDEDDTNDGIERYSDKY [RPC31]
protein stability index (doa10∆): 3.32 ± 0.14
protein stability index (pdr5∆): 3.4 ± 0.12
protein stability index (san1∆): 3.22 ± 0.11
protein stability index (ubr1∆): 3.26 ± 0.074

SNIPNLLRNLESKMRQQ [YDL088C/ASM4]
protein stability index (doa10∆): 3.15 ± 0.11
protein stability index (pdr5∆): 2.84 ± 0.086
protein stability index (san1∆): 2.97 ± 0.12
protein stability index (ubr1∆): 3.07 ± 0.062

RKRCKGTVGNSHKTTKE [RPL11A]
protein stability index (doa10∆): 2.94 ± 0.28
protein stability index (pdr5∆): 3 ± 0.17
protein stability index (san1∆): 2.99 ± 0.16

ESKLKIDPDTKAPNAVV [RPB11]
protein stability index (doa10∆): 2.24 ± 0.2
protein stability index (pdr5∆): 2.56 ± 0.22
protein stability index (san1∆): 2.62 ± 0.11
protein stability index (ubr1∆): 2.92 ± 0.14

RGIPRLSEDELRELDVE [SMC4]
protein stability index (doa10∆): 3.44 ± 0.14
protein stability index (pdr5∆): 3.68 ± 0.21
protein stability index (san1∆): 3.36 ± 0.14
protein stability index (ubr1∆): 3.57 ± 0.11

VLPAATKKKSKFMTNST [ARP9]
protein stability index (doa10∆): 2.74 ± 0.055
protein stability index (pdr5∆): 2.78 ± 0.046
protein stability index (san1∆): 2.71 ± 0.047
protein stability index (ubr1∆): 2.96 ± 0.039

DQYLWYEADQRKLFPNW [PRP8]
protein stability index (ubr1∆): 3.13 ± 0.19

GVAMNPVDHPHGGGNHQ [RPL2A]
protein stability index (doa10∆): 2.9 ± 0.27
protein stability index (ubr1∆): 3.25 ± 0.14

YPFLLSFLGEAKSMAFL [YML103C/NUP188]
protein stability index (doa10∆): 2.18 ± 0.084
protein stability index (pdr5∆): 2.35 ± 0.067
protein stability index (san1∆): 2.29 ± 0.11
protein stability index (ubr1∆): 2.38 ± 0.048

MEMIENRTMDGKPVSLP [FAS1]
protein stability index (doa10∆): 3.38 ± 0.15
protein stability index (pdr5∆): 3.24 ± 0.22
protein stability index (san1∆): 2.75 ± 0.16
protein stability index (ubr1∆): 3.39 ± 0.096

EEDADQEESFSLNLGIG [SRB8]
protein stability index (doa10∆): 3.2 ± 0.14
protein stability index (pdr5∆): 3.01 ± 0.27
protein stability index (san1∆): 2.94 ± 0.17

KQVLLRLNPYAKVFAAE [RPL4A]
protein stability index (doa10∆): 2.12 ± 0.067
protein stability index (pdr5∆): 2.6 ± 0.11
protein stability index (ubr1∆): 2.42 ± 0.074

MKVKADRDESSPYAAML [RPS14A]
protein stability index (doa10∆): 3.37 ± 0.1
protein stability index (pdr5∆): 3.29 ± 0.065
protein stability index (san1∆): 3.23 ± 0.048
protein stability index (ubr1∆): 3.27 ± 0.068

VLIDLLNWFRTTNMNVN [RGR1]
protein stability index (doa10∆): 2.9 ± 0.11
protein stability index (pdr5∆): 1.66 ± 0.068
protein stability index (san1∆): 3.19 ± 0.096
protein stability index (ubr1∆): 1.92 ± 0.093

LIRPSSKVIIKFLQVMQ [RPS22A]
protein stability index (doa10∆): 1.86 ± 0.036
protein stability index (pdr5∆): 1.82 ± 0.03
protein stability index (san1∆): 2.02 ± 0.052
protein stability index (ubr1∆): 2.25 ± 0.034

EGNQIIVFVHSRKETSR [BRR2]
protein stability index (doa10∆): 2.01 ± 0.055
protein stability index (pdr5∆): 2.28 ± 0.054
protein stability index (san1∆): 1.8 ± 0.072
protein stability index (ubr1∆): 2.48 ± 0.05
